Test results reported in article PMC3268518 (Molecular Cell, 2011).

T1: co-purified GST-eIF4G1/eIF4E complex (yeast, UniProt P39935 1-952; P07260 1-213)
T1 sequence (looked up) 1: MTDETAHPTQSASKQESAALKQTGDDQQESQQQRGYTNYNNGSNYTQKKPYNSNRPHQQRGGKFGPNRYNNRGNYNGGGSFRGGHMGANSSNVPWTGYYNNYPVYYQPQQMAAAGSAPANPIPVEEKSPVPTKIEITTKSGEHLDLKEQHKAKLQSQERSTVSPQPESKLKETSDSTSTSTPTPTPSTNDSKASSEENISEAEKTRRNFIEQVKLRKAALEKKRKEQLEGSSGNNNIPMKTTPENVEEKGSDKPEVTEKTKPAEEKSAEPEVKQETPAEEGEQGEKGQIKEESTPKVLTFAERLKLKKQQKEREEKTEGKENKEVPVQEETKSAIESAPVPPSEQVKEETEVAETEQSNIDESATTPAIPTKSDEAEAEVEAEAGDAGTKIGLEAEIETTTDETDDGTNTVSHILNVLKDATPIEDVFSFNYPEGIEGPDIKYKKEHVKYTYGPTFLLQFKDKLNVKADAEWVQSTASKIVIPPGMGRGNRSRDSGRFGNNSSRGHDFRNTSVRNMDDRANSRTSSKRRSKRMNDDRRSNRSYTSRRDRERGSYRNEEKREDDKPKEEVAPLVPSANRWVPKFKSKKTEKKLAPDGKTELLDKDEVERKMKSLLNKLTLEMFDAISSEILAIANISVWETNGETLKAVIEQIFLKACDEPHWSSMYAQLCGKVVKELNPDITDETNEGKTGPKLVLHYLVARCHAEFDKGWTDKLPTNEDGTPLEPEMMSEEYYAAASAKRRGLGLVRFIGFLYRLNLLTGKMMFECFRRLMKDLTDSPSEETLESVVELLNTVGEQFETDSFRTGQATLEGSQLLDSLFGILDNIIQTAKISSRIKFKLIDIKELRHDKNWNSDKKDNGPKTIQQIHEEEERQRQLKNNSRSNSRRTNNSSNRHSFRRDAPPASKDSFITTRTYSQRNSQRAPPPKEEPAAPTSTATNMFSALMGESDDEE
T1 sequence (looked up) 2: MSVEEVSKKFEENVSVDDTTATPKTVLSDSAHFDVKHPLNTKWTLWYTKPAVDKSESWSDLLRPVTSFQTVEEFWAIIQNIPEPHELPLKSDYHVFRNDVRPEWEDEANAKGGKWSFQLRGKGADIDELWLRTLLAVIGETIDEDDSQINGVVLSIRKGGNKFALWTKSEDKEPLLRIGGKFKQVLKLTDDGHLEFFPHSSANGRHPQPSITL


Key:
[1] = molecular target: T1, co-purified GST-eIF4G1/eIF4E complex; assay: pull-down
[2] = molecular target: recombinant wild type Ded1 (yeast, UniProt P06634 1-604); assay: pull-down

| binding result [1] | binding result [2] | Binder |
| --- | --- | --- |
| binds | – | rded1Δ21-27 (enzyme, yeast, UniProt P06634 1-604, looked up) MAELSEQVQNLSINDNNENGGKPRSARNNSSNYNNNNGGYNGGRGGGSFFSNNRRGGYGNGGFFGGNNGGSRSNGRSGGRWIDGKHVPAPRNEKAEIAIFGVPEDPNFQSSGINFDNYDDIPVDASGKDVPEPITEFTSPPLDGLLLENIKLARFTKPTPVQKYSVPIVANGRDLMACAQTGSGKTGGFLFPVLSESFKTGPSPQPESQGSFYQRKAYPTAVIMAPTRELATQIFDEAKKFTYRSWVKACVVYGGSPIGNQLREIERGCDLLVATPGRLNDLLERGKISLANVKYLVLDEADRMLDMGFEPQIRHIVEDCDMTPVGERQTLMFSATFPADIQHLARDFLSDYIFLSVGRVGSTSENITQKVLYVENQDKKSALLDLLSASTDGLTLIFVETKRMADQLTDFLIMQNFRATAIHGDRTQSERERALAAFRSGAATLLVATAVAARGLDIPNVTHVINYDLPSDVDDYVHRIGRTGRAGNTGLATAFFNSENSNIVKGLHEILTEANQEVPSFLKDAMMSAPGSRSNSRRGGFGRNNNRDYRKAGGASAGGWGSSRSRDNSFRGGSGWGSDSKSSGWGNSGGSNNSSWW |
| – | binds | GST-eIF4G1 fragment eIF4G 883-952 (domain or fragment, yeast, UniProt P39935 883-952, looked up) SNSRRTNNSSNRHSFRRDAPPASKDSFITTRTYSQRNSQRAPPPKEEPAAPTSTATNMFSALMGESDDEE |
